Measurements from paper doi:10.1101/2020.08.13.232140, “Assembly and symmetry of the fungal E3BP-containing core of the Pyruvate Dehydrogenase Complex” (bioRxiv, 2020).

How the values were obtained:
[1] = molecular target: the molecule itself; assay: cryo-EM structure; native PDC purified from N. crassa mitochondria; single-particle reconstructions under icosahedral and tetrahedral symmetry (classes X, Y, N)
[2] = molecular target: the molecule itself; assay: cryo-EM structure; reconstituted tE2+PX30 subcomplex of separately expressed components; icosahedral (map R1) and tetrahedral (maps R2X/Y) reconstructions
[3] = molecular target: the molecule itself; assay: cryo-EM structure; co-expressed tE2/PX261 subcomplex; reconstruction under icosahedral symmetry

B1: E2 of the native N. crassa pyruvate dehydrogenase complex (PDC core) (natural protein, UniProt P20285 29-458, looked up)
chain: ASYPPHTVVKMPALSPTMTSGGIGAWQKKPGDKIEPGEVLVEIETDKAQMDFEFQEEGVLAKILKDSGEKDVAVGNPIAILVEEGTDVNAFKDFTLKDAGGETSPAVPKDEPKNESTASAPTPAPTPAPEPENTSFTGRFQTALEREPNALPAAKRLAREKGIDLRNVKGSGPGGKITEEDVKKALASAPAAGAAAAAYTDVPISGMRKTIAARLKESVTENPHFFVSTNLSVSKLLKLRQALNSSADGRYKLSVNDFLIKAMGIASKRVPTVNSSWRDGVIRQFETVDVSVAVATPNGLITPIVKGVEGKGLESISAAVKELAKKARDGKLKPEEYQGGSISISNMGMNPAVQSFTAIINPPQAAILAVGAPQKVAVPVENEDGTTGVSWDEQIIVTASFDHKVVDGAVGAEWIRELKKVIENPLELLL
notes: E2 (acetyltransferase) component of the pyruvate dehydrogenase complex, Neurospora crassa, UniProt P20285; residues 232-458 identified in the native reconstruction; the recombinant E2 construct starts at residue 29; Strain WT STA74 / ATCC 14692; also called E2 core; source: endogenous, PDC purified from N. crassa mitochondria (sucrose cushion, sucrose gradient, SEC); copies: 60
B1 was tested, and the “stoichiometry N” value [1] was 60.

B2: N. crassa E2 core-forming domain (tE2), separately expressed (domain or fragment, UniProt P20285 225-458, looked up)
chain: AAYTDVPISGMRKTIAARLKESVTENPHFFVSTNLSVSKLLKLRQALNSSADGRYKLSVNDFLIKAMGIASKRVPTVNSSWRDGVIRQFETVDVSVAVATPNGLITPIVKGVEGKGLESISAAVKELAKKARDGKLKPEEYQGGSISISNMGMNPAVQSFTAIINPPQAAILAVGAPQKVAVPVENEDGTTGVSWDEQIIVTASFDHKVVDGAVGAEWIRELKKVIENPLELLL
notes: E2 of the pyruvate dehydrogenase complex, Neurospora crassa, residues 225-458 of UniProt P20285 (core-forming catalytic domain); model built for 227-458; pRSET vector; the His6-tag is cleavable with thrombin; Icosahedral assembly; source: E. coli Rosetta2 (DE3), single expression
B2: binds [2].

B3: untagged N. crassa E2 core-forming domain (tE2), co-expressed with PX constructs (domain or fragment, UniProt P20285 225-458, looked up)
chain: AAYTDVPISGMRKTIAARLKESVTENPHFFVSTNLSVSKLLKLRQALNSSADGRYKLSVNDFLIKAMGIASKRVPTVNSSWRDGVIRQFETVDVSVAVATPNGLITPIVKGVEGKGLESISAAVKELAKKARDGKLKPEEYQGGSISISNMGMNPAVQSFTAIINPPQAAILAVGAPQKVAVPVENEDGTTGVSWDEQIIVTASFDHKVVDGAVGAEWIRELKKVIENPLELLL
notes: E2 of the pyruvate dehydrogenase complex, Neurospora crassa, residues 225-458 of UniProt P20285 (core-forming catalytic domain); petDuet dual-expression vectors were built with the single-expression genes as template; PX stood in the His-tagged MCS1, tE2 untagged; also called untagged E2 core-forming domain; PDC core; source: E. coli Rosetta2 (DE3), co-expressed with His-tagged PX from petDuet, …
B3: binds [3].
